Here are results for eight molecules from patent publication US20120316071A1 (published 2012).

The target in assay [1] is T1, Recombinant Human DLL4 (delta-like protein 4) (human, UniProt Q9NR61 27-529).
T1 construct: Bought recombinant human DLL4 (R&D Systems Cat#1506-D4/CF); also called rHuman DLL4; Delta-like 4
The assay is described as follows: 96-well plate ECL binding assay, DLL4 immobilised, Fab in solution.

Assay [2] deals with T1, Recombinant Human DLL4 (delta-like …). In words: ELISA, DLL4 coated on plate, Fab in solution, absorbance at 450 nm. (ELISA stands for enzyme-linked immunosorbent assay.)
The target of assay [3] is T2, Recombinant Human DLL4 (human, UniProt Q9NR61 27-524).
T2 construct: Bought recombinant human DLL4 (R&D Systems 1506-D4/CF); also called delta-like protein 4; rHuman DLL4
The assay is described as follows: ELISA on plate-coated DLL4, Fab at 20 nM (3-fold serial dilution).

Assay [4] has as its target T2, Recombinant Human DLL4. The assay is described as follows: ELISA on plate-coated DLL4, Fab at 0.74 nM (3-fold serial dilution).
For assay [5], the target named is T2, Recombinant Human DLL4. The assay is described as follows: ELISA on plate-coated DLL4, Fab at 2.22 nM (3-fold serial dilution).
Assay [6] deals with T2, Recombinant Human DLL4. In words: ELISA on plate-coated DLL4, Fab at 6.67 nM (3-fold serial dilution).
For assay [7], the target named is T2, Recombinant Human DLL4. The assay is described as follows: ECL (MSD) binding assay, Fab on immobilised recombinant human DLL4; Fab concentration not given in the table.
The target of assay [8] is T3, rHuman ErbB2/Fc Chimera, CF (R&D Systems Cat#1129-ER) (human, UniProt P04626 23-652).
T3 construct: Bought recombinant protein; also called human epidermal growth factor 2 receptor
The assay is described as follows: ECL multispot (MSD) binding assay, antigen spotted on plate.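 Further: purified Fab incubated 1 h at 20 °C on antigen spots, detected with TAG-labelled antibody, electrochemiluminescence compared with each well's blank, signal-to-blank ratio ≥4 counted as hit.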

Assay [9] has as its target T4, rHuman EGF R/Fc Chimera, CF (R&D Systems Cat#344-ER) (human, UniProt P00533 25-645).
T4 construct: Bought recombinant protein; also called epidermal growth factor receptor
The description is as above.

Assay [10] has as its target T5, rHuman HGF R/c-MET/Fc Chimera, CF (R&D Systems Cat#358-MT/CF) (human, UniProt P08581 25-932).
T5 construct: Bought recombinant protein; also called HGF R/Fc; hepatocyte growth factor receptor
Described as above.

For assay [11], the target named is T6, rHuman Notch-1/Fc Chimera, CF (R&D Systems Cat#3647-TK) (human, UniProt P46531 19-526).
T6 construct: Bought recombinant protein
The assay is described as above.

In assay [12] the target is T7, rHuman CD44/Fc Chimera, CF (R&D Systems Cat#3660-CD) (human, UniProt P16070 21-220).
T7 construct: Bought recombinant protein
The description is as above.

The target of assay [13] is T8, rHuman IGF-1 sR, (IGF-1 sR), CF (R&D Systems Cat#391-GR) (human, UniProt P08069 31-932).
T8 construct: Bought recombinant soluble receptor; also called insulin-like growth factor-1 soluble receptor
The assay is described as above.

Assay [14] addresses T9, rHuman P-Cadherin/Fc Chimera, CF (R&D Systems Cat#861-PC) (human, UniProt P22223 108-654).
T9 construct: Bought recombinant protein
Described as above.

In assay [15] the target is T10, Recombinant Human DLL4 (R&D Systems Cat#1506-D4/CF) (human, UniProt Q9NR61 27-524).
T10 construct: Bought recombinant protein; also called delta-like protein 4; rHuman DLL4
Described as above.

Residue numbers refer to the chain shown, from its start. Names may count otherwise.

T5 sequence (P08581 25-932, change not shown): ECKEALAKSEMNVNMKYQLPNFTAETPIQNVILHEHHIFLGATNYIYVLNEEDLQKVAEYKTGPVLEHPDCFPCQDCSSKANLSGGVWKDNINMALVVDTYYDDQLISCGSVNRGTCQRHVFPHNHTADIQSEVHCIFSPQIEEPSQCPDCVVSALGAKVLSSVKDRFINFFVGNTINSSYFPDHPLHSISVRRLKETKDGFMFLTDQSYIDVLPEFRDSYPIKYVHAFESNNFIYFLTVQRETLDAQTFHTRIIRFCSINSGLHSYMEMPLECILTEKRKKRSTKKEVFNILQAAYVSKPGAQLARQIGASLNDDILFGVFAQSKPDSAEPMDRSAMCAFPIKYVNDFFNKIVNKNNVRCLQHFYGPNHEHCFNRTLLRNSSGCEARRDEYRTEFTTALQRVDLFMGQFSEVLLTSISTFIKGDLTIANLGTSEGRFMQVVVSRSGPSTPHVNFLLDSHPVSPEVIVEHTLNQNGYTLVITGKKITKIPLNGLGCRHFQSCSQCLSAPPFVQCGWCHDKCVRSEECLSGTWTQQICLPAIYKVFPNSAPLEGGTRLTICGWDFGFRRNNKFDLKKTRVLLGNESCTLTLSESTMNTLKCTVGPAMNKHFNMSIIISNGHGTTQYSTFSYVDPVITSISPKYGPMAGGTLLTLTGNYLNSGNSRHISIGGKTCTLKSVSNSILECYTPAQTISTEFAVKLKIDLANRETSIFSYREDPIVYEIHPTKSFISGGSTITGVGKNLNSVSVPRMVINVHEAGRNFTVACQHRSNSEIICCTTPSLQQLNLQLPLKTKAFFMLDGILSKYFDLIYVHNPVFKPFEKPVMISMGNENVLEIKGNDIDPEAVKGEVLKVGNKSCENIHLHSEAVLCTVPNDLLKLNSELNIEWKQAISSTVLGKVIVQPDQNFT

B1: Fab VH1-46_IGHD6-6*01_IGHJ1*01 S102A/S103P/S104F/H111F & L6_IGKJ1*01 S28N/S30D/S31H N53H (Fab, V domains shown)
VH: QVQLVQSGAEVKKPGASVKVSCKASGYTFTSYYMHWVRQAPGQGLEWMGIINPSGGSTSYAQKFQGRVTMTRDTSTSTVYMELSSLRSEDTAVYYCAREEYAPFSAEYFQFWGQGTLVTVSS
VL: EIVLTQSPATLSLSPGERATLSCRASQNVDHYLAWYQQKPGQAPRLLIYDASHRATGIPARFSGSGSGTDFTLTISSLEPEDFAVYYCQQRSNWPPWTFGQGTKVEIKR
notes: Fab with CH1 (plasmid A, His6 and Flag tags) and kappa CL (plasmid C); also called H:APFF & L:NDH N53H
With B1, the “ECL signal” value in assay [1] is 20100. Further, the “ELISA (Avgerage signal-noise)” value in assay [2] is 0.23.

B2: Fab VH1-46_IGHD6-6*01_IGHJ1*01 S102A/S103P/S104F/H111F I51A/N52L/S54T/G56H & L6_IGKJ1*01 S28N/S30D/S31H (Fab, V domains shown)
VH: B1 VH with I51A, N52L, S54T, G56H
VL: B1 VL with H53N
notes: Fab expressed in E. coli: VH joined to CH1 from Plasmid A (His6 and Flag tags), VL joined to kappa CL from Plasmid C; also called H:APFF ALTH & L:NDH
As for B2, the ELISA signal came to 0.391 in the assay with Recombinant Human DLL4 [3], 0.024 with Recombinant Human DLL4 [4], 0.069 in the assay with Recombinant Human DLL4 [5] and 0.232 with Recombinant Human DLL4 [6]. For the same molecule, the “ECL signal” value in the assay with Recombinant Human DLL4 [7] was found to be 1840.

B3: Fab VH1-46_IGHD6-6*01_IGHJ1*01 S102A/S103P/S104F/H111F & L6_IGKJ1*01 S28N/S30D/S31H N53M (Fab, V domains shown)
VH: B1 VH
VL: B1 VL with H53M
notes: Fab with CH1 (plasmid A, His6 and Flag tags) and kappa CL (plasmid C); also called H:APFF & L:NDH N53M
In the case of B3, the “ECL signal” value in assay [1] is 17800. Besides, the “ELISA (Avgerage signal-noise)” value in [2] amounted to 0.162.

B4: Fab VH1-46_IGHD6-6*01_IGHJ1*01 S102A/S103P/S104F/H111F & L6_IGKJ1*01 S28N/S30D/S31H N53E (Fab, V domains shown)
VH: B1 VH
VL: B1 VL with H53E
notes: Fab with CH1 (plasmid A, His6 and Flag tags) and kappa CL (plasmid C); also called H:APFF & L:NDH N53E
In the case of B4, the “ECL signal” value in [1] amounted to 17600. Moreover, the “ELISA (Avgerage signal-noise)” value in assay [2] stood at 0.204.

B5: Fab VH1-46_IGHD6-6*01_IGHJ1*01 S102A/S103P/S104F/H111F (APFF) & L6_IGKJ1*01 S31A (Fab, V domains shown)
VH: B1 VH
VL: B1 VL with N28S, D30S, H31A, H53N
notes: Tested as Fab (CH1 with His6/Flag tags, kappa CL) made in E. coli; also called APFF / S31A
Consider B5, for which the ECL signal in assay [8] was 383; in assay [9], 415; in assay [10] it was 309; in assay [11], 424; in [12], 406; in assay [13], 334. The ECL signal in assay [14] was 361; in [15], 192000.

B6: Fab VH1-46_IGHD6-6*01_IGHJ1*01 S102A/S103P/S104F/H111F & L6_IGKJ1*01 S28N/S30D/S31H S52T (Fab, V domains shown)
VH: B1 VH
VL: B1 VL with S52T, H53N
notes: Fab with CH1 (plasmid A, His6 and Flag tags) and kappa CL (plasmid C); also called H:APFF & L:NDH S52T
In the case of B6, the “ECL signal” value in assay [1] is 20100. In assay [2], the “ELISA (Avgerage signal-noise)” value amounted to 0.263.

B7: Fab VH1-46_IGHD6-6*01_IGHJ1*01 S102A/S103P/S104F/H111F I51A/N52L/S54T/G56H & L6_IGKJ1*01 S28N/S30D/S31H S52L/A55G (Fab, V domains shown)
VH: B1 VH with I51A, N52L, S54T, G56H
VL: B1 VL with S52L, H53N, A55G
notes: Fab expressed in E. coli: VH joined to CH1 from Plasmid A (His6 and Flag tags), VL joined to kappa CL from Plasmid C; also called H:APFF ALTH & L:NDH LG
Turning to B7, the ELISA signal is 0.39 with Recombinant Human DLL4 [3], 0.028 in the assay with Recombinant Human DLL4 [4], 0.069 with Recombinant Human DLL4 [5] and 0.212 with Recombinant Human DLL4 [6]. Also, in the assay with Recombinant Human DLL4 [7], the “ECL signal” value turned out to be 1760.

B8: Fab VH1-46_IGHD6-6*01_IGHJ1*01 S102A/S103P/S104F/H111F & L6_IGKJ1*01 S28N/S30D/S31H S52L (Fab, V domains shown)
VH: B1 VH
VL: B1 VL with S52L, H53N
notes: Fab made in E. coli; The rest is CH1 from plasmid A (His6 and Flag tags) and kappa CL from plasmid C; also called H:APFF & L:NDH S52L
For B8, the “ECL signal” value in [1] came out at 17800. The “ELISA (Avgerage signal-noise)” value in assay [2] amounted to 0.285.
